In patent US20160120976A1:

Assays:
CD20 (human) = CD20 (human) (UniProt P11836); experiment: cell-based or functional assay
CD74 (human) = CD74 (human) (UniProt P04233); experiment: cell-based or functional assay
CD74 (human), sequence (P04233 whole entry): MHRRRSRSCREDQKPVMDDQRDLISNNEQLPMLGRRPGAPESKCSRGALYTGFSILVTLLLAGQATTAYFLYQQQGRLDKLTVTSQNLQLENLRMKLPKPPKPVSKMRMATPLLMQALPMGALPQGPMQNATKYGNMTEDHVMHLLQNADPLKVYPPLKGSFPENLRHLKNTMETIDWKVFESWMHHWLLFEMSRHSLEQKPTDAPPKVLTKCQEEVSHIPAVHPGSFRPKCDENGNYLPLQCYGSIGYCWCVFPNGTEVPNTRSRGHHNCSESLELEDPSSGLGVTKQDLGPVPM

CD20 (human), sequence (P11836 whole entry): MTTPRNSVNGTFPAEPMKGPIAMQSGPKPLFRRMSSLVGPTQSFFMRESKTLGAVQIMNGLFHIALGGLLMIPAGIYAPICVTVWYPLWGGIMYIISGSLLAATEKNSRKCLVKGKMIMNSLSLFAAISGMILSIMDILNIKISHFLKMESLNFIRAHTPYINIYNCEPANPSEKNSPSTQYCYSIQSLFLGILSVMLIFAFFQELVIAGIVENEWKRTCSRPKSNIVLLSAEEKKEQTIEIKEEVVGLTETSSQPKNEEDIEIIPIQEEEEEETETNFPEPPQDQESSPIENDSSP

Row | Substance | EC50 (nM), MTS cell proliferation assay, Daudi (CD20 (human)) | EC50 (nM), MTS cell proliferation assay, Granta-519 (CD20 (human)) | EC50 (nM), MTS cell proliferation assay, JeKo-1 (CD20 (human)) | EC50 (nM), MTS cell proliferation assay, Mino (CD20 (human)) | EC50 (nM), MTS cell proliferation assay, Raji (CD20 (human)) | Percent inhibition (%) at 100 nM, MTS assay, Granta-519 (CD20 (human)) | Percent inhibition (%) at 100 nM, MTS assay, JeKo-1 (CD20 (human)) | Percent inhibition (%) at 100 nM, MTS assay, Raji (CD20 (human)) | homotypic adhesion (%), JeKo-1, 2 h, 10 nM (CD20 (human)) | homotypic adhesion (%), JeKo-1, 24 h, 10 nM (CD20 (human)) | EC50 (nM), MTS cell proliferation assay, Daudi (CD74 (human)) | EC50 (nM), MTS cell proliferation assay, Granta-519 (CD74 (human)) | EC50 (nM), MTS cell proliferation assay, JeKo-1 (CD74 (human)) | EC50 (nM), MTS cell proliferation assay, Mino (CD74 (human)) | EC50 (nM), MTS cell proliferation assay, Raji (CD74 (human)) | EC50, MTS assay, in CLL lines WAC, MEC-1, ALL lines REH-1, MN60 and MM lines CAG, RPMI8226, KMS11, KMS12-BM, KMS12-PE (CD74 (human)) | Percent inhibition (%) at 100 nM, MTS assay, Granta-519 (CD74 (human)) | Percent inhibition (%) at 100 nM, MTS assay, JeKo-1 (CD74 (human)) | Percent inhibition (%) at 100 nM, MTS assay, Mino (CD74 (human)) | Percent inhibition (%) at 100 nM, MTS assay, Raji (CD74 (human)) | other results
1 | 74-(20)-(20) bispecific hexavalent antibody (HexAb): CH3-AD2-IgG-milatuzumab with a pair of stabilized dimers of CH1-DDD2-Fab-veltuzumab (bispecific antibody) | 1.2 nM | 0.6 nM | 2 nM | 1.2 nM | 0.3 nM | 65% | 90% | 50% | 90% | > 95% | 1.2 nM | 0.6 nM | 2 nM | 1.2 nM | 0.3 nM | > 100 nM | 65% | 90% | 100% | 50% | homotypic adhesion (%), JeKo-1, 2 h, 10 nM (CD74 (human)): 90%; homotypic adhesion (%), JeKo-1, 24 h, 10 nM (CD74 (human)): > 95%
2 | 20-(74)-(74) bispecific hexavalent antibody (HexAb): CH3-AD2-IgG-veltuzumab with a pair of stabilized dimers of CH1-DDD2-Fab-milatuzumab (bispecific antibody) | 5.3 nM | 2 nM | 3 nM | 13.7 nM | 0.3 nM | 55% | 70% | 50% | 90% | > 95% | 5.3 nM | 2 nM | 3 nM | 13.7 nM | 0.3 nM | > 100 nM | 55% | 70% | 80% | 50% | Percent inhibition (%) at 100 nM, MTS assay, Mino (CD20 (human)): 80%; homotypic adhesion (%), JeKo-1, 2 h, 10 nM (CD74 (human)): 90%; homotypic adhesion (%), JeKo-1, 24 h, 10 nM (CD74 (human)): > 95%
